Consider 4 molecules from doi:10.1101/2023.09.15.557970 (bioRxiv, 2023).

What is called Kd is a measure of binding affinity in units of concentration. Lower therefore signals tighter binding.

B1: Notch3 RAMANK (domain or fragment, human, UniProt Q9UM47 1663-2038, looked up)
chain: MVARRKREHSTLWFPEGFSLHKDVASGHKGRREPVGQDALGMKNMAKGESLMGEVATDWMDTECPEAKRLKVEEPGMGAEEAVDCRQWTQHHLVAADIRVAPAMALTPPQGDADADGMDVNVRGPDGFTPLMLASFCGGALEPMPTEEDEADDTSASIISDLICQGAQLGARTDRTGETALHLAARYARADAAKRLLDAGADTNAQDHSGRTPLHTAVTADAQGVFQILIRNRSTDLDARMADGSTALILAARLAVEGMVEELIASHADVNAVDELGKSALHWAAAVNNVEATLALLKNGANKDMQDSKEETPLFLAAREGSYEAAKLLLDHFANREITDHLDRLPRDVAQERLHQDIVRLLDQPSGPRSPPGPHG
B2: Notch1 RAMANK (domain or fragment, human, UniProt P46531 1758-2127, looked up)
chain: RKRRRQHGQLWFPEGFKVSEASKKKRREPLGEDSVGLKPLKNASDGALMDDNQNEWGDEDLETKKFRFEEPVVLPDLDDQTDHRQWTQQHLDAADLRMSAMAPTPPQGEVDADCMDVNVRGPDGFTPLMIASCSGGGLETGNSEEEEDAPAVISDFIYQGASLHNQTDRTGETALHLAARYSRSDAAKRLLEASADANIQDNMGRTPLHAAVSADAQGVFQILIRNRATDLDARMHDGTTPLILAARLAVEGMLEDLINSHADVNAVDDLGKSALHWAAAVNNVDAAVVLLKNGANKDMQNNREETPLFLAAREGSYETAKVLLDHFANRDITDHMDRLPRDIAQERMHHDIVRLLDEYNLVRSPQLHGA
B3: Notch2 RAMANK (domain or fragment, human, UniProt Q04721 1699-2076, looked up)
chain: MAKRKRKHGSLWLPEGFTLRRDASNHKRREPVGQDAVGLKNLSVQVSEANLIGTGTSEHWVDDEGPQPKKVKAEDEALLSEEDDPIDRRPWTQQHLEAADIRRTPSLALTPPQAEQEVDVLDVNVRGPDGCTPLMLASLRGGSSDLSDEDEDAEDSSANIITDLVYQGASLQAQTDRTGEMALHLAARYSRADAAKRLLDAGADANAQDNMGRCPLHAAVAADAQGVFQILIRNRVTDLDARMNDGTTPLILAARLAVEGMVAELINCQADVNAVDDHGKSALHWAAAVNNVEATLLLLKNGANRDMQDNKEETPLFLAAREGSYEAAKILLDHFANRDITDHMDRLPRDVARDRMHHDIVRLLDEYNVTPSPPGTVL
B4: Notch4 RAMANK (domain or fragment, human, UniProt Q99466 1472-1833, looked up)
chain: RRRRREHGALWLPPGFTRRPRTQSAPHRRRPPLGEDSIGLKALKPKAEVDEDGVVMCSGPEEGEEVGQAEETGPPSTCQLWSLSGGCGALPQAAMLTPPQESEMEAPDLDTRGPDGVTPLMSAVCCGEVQSGTFQGAWLGCPEPWEPLLDGGACPQAHTVGTGETPLHLAARFSRPTAARRLLEAGANPNQPDRAGRTPLHAAVAADAREVCQLLLRSRQTAVDARTEDGTTPLMLAARLAVEDLVEELIAAQADVGARDKWGKTALHWAAAVNNARAARSLLQAGADKDAQDNREQTPLFLAAREGAVEVAQLLLGLGAARELRDQAGLAPADVAHQRNHWDLLTLLEGAGPPEARHKATP

The target of the test is Human CSL spanning residues 25-449 (human, UniProt Q06330 25-449). Description: ITC. (ITC needs no label: the signal is the heat of the interaction.)
Chain of Human CSL spanning residues 25-449 (Q06330 25-449): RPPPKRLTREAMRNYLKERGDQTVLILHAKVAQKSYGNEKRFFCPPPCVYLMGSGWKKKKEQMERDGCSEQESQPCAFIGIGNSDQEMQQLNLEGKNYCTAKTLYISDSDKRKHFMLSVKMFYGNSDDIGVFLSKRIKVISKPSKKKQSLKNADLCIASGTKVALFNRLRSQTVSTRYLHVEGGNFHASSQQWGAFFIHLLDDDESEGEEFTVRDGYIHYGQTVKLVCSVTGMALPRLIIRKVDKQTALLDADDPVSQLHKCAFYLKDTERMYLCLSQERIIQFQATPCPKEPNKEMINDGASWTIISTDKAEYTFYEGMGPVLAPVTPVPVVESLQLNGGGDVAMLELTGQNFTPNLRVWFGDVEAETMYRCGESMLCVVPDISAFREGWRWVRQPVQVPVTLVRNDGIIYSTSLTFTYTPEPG
On to B1, for which the Kd is no more than 100 nM.

B2 had a Kd of no more than 100 nM. Next, B3: no more than 100 nM.

Turning to B4, the Kd is no more than 100 nM.
